Test results from patent publication US20220119534A1 (DRAGONFLY THERAPEUTICS, published 2022).
Where “and” joins values, the source holds several entries; their conditions need not be identical. Identical values can stand only once.

T1: Human CLEC12A-His (recombinant, K244 WT) (human, UniProt Q5QGZ9 65-265)
T1 construct: Made in house (Dragonfly Tx); also called hCLEC12A; hCLEC12A-His; not shown: His tag
T1 sequence: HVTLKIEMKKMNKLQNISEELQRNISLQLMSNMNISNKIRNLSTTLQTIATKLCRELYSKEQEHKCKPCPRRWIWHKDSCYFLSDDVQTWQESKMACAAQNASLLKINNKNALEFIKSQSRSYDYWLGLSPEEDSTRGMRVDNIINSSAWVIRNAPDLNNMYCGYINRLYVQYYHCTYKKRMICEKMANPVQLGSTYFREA

T2: Human CLEC12A-K244Q-His (human, UniProt Q5QGZ9 65-265)
T2 construct: also called hCLEC12A (Q244); CLEC12A (Q244); not shown: His tag
T2 chain: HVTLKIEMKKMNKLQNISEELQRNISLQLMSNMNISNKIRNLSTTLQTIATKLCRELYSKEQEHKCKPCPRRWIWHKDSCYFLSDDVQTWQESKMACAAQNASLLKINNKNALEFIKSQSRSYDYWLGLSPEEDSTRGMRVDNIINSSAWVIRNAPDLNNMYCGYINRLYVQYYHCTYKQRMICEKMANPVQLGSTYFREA


What was measured:
[1] = molecular target: T3, Human CD16a V158 (FcγRIIIa V158) (human, UniProt P08637 17-208, biotinylated (site not stated)); assay: SPR; biotinylated CD16a V158 captured on SA chip, TriNKET as analyte; 1:1 kinetic fit; control sample
T3 construct: V158 is the allele name in mature numbering; also called hCD16aV; hCD16a V158
T3 sequence (P08637 17-208 F176V limits assumed): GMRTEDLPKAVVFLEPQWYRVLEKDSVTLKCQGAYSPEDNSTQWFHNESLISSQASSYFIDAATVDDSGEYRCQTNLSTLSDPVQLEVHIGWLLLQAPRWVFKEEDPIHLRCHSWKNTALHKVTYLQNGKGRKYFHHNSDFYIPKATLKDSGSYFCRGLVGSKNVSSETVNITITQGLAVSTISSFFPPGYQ

[2] = molecular target: T4, Cynomolgus CD16 (FcγRIII) (cynomolgus monkey, UniProt Q8SPW2 17-208, biotinylated); assay: SPR 25C, biotinylated cyno CD16 captured
T4 construct: Bought recombinant receptor; also called cFcγRIII; Cyno FcγRIII
T4 sequence (Q8SPW2 17-208 limits assumed): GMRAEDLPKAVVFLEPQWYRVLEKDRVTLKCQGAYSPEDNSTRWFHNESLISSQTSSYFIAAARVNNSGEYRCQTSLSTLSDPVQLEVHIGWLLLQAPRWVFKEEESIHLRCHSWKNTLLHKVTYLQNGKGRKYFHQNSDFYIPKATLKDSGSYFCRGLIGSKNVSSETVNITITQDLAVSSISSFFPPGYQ

[3] = molecular target: T1, Human CLEC12A-His (recombinant, K244 WT); assay: SPR, two-state fit (kd1)
Method: (§1) Briefly, human Fc specific antibodies were covalently immobilized at a density ˜8000-10000 resonance units (RU) on carboxy methyl dextran matrix of a CM5 biosensor chip via amine-coupling chemistry to create an anti-hFc IgG chip. […] Association was monitored for 300 seconds and dissociation was monitored for 600 seconds. Surfaces were regenerated between cycles with three pulses of 10 mM glycine-HCl, pH 1.7 injected for 20 seconds at 100 μl/min. HBS-EP+ (1×) with 0.1 mg/ml BSA was used as running buffer throughout the experiment. Experiments were performed at physiological temperature of 37° C. To obtain kinetic rate constants and overall binding affinity, double-referenced data were fit to a two-state kinetic model using Biacore 8K Insight Evaluation software (Cytiva).

[4] = molecular target: T2, Human CLEC12A-K244Q-His; assay: SPR, two-state fit (kd1)
Method: as §1

Kd [1]	koff [1]	kon [1]	Kd [2]	koff [3]	koff [4]	Binder
212 nM	0.024 s⁻¹	113000 M⁻¹ s⁻¹	–	–	–	F3'-1602 TriNKET (bispecific antibody, human IgG1, kappa, Trispecific F3' format: CLEC12A scFv-Fc paired with NKG2D Fab-Fc; Stressed and control samples of the stability studies are the same molecule; also called AB0237) QLQLQESGPGLVKPSETLSLTCTVSGFSLTNYGLHWIRQPPGKCLEWIGVIWSGGKTDYNPSLKSRVTISKDTSKNQFSLKLSSVQAADTAVYYCAKYDYDDSLDYWGQGTLVTVSSGGGGSGGGGSGGGGSGGGGSDIQMTQSPSSLSASVGDRVTITCHASQNINFWLSWYQQKPGKAPKLLIYEASNLHTGVPSRFSGSGSGTRFTLTISSLQPEDIATYYCQQSHSYPLTFGCGTKLEIKGSDKTHTCPPCPAPELLGGPSVFLFPPKPKDTLMISRTPEVTCVVVDVSHEDPEVKFNWYVDGVEVHNAKTKPREEQYNSTYRVVSVLTVLHQDWLNGKEYKCKVSNKALPAPIEKTISKAKGQPREPRVYTLPPCRDELTKNQVSLTCLVKGFYPSDIAVEWESNGQPENNYKTTPPVLVSDGSFTLYSKLTVDKSRWQQGNVFSCSVMHEALHNHYTQKSLSLSPG heavy: EVQLVESGGGLVKPGGSLRLSCAASGFTFSSYSMNWVRQAPGKGLEWVSSISSSSSYIYYADSVKGRFTISRDNAKNSLYLQMNSLRAEDTAVYYCARGAPIGAAAGWFDPWGQGTLVTVSSASTKGPSVFPLAPSSKSTSGGTAALGCLVKDYFPEPVTVSWNSGALTSGVHTFPAVLQSSGLYSLSSVVTVPSSSLGTQTYICNVNHKPSNTKVDKKVEPKSCDKTHTCPPCPAPELLGGPSVFLFPPKPKDTLMISRTPEVTCVVVDVSHEDPEVKFNWYVDGVEVHNAKTKPREEQYNSTYRVVSVLTVLHQDWLNGKEYKCKVSNKALPAPIEKTISKAKGQPREPQVCTLPPSRDELTENQVSLTCLVKGFYPSDIAVEWESNGQPENNYKTTPPVLDSDGSFFLYSWLTVDKSRWQQGNVFSCSVMHEALHNHYTQKSLSLSPG light: DIQMTQSPSSVSASVGDRVTITCRASQGISSWLAWYQQKPGKAPKLLIYAASSLQSGVPSRFSGSGSGTDFTLTISSLQPEDFATYYCQQGVSFPRTFGGGTKVEIKRTVAAPSVFIFPPSDEQLKSGTASVVCLLNNFYPREAKVQWKVDNALQSGNSQESVTEQDSKDSTYSLSSTLTLSKADYEKHKVYACEVTHQGLSSPVTKSFNRGEC
–	–	–	351 nM and 347 nM and 348 nM	0.0398 s⁻¹	0.00353 s⁻¹	AB0089 TriNKET (bispecific antibody, human IgG1, kappa, F3' format heterodimer of three chains; human IgG1 Fc with EW-RVT and Y349C/S354C mutations; also called AB0089 Lot AB0089-002; CLEC12A TriNKET AB0089) QLQLQESGPGLVKPSETLSLTCTVSGFSLTNYGLHWIRQPPGKCLEWIGVIWVGGATDYNPSLKSRVTISVDTSKNQFSLKLSSVQAADTAVYYCAKGDYGDTLDYWGQGTLVTVSSGGGGSGGGGSGGGGSGGGGSDIQMTQSPSSLSASVGDRVTITCHASQNINFWLSWYQQKPGKAPKLLIYEASNLHTGVPSRFSGSGSGTDFTLTISSLQPEDFATYYCQQSHSYPLTFGCGTKLEIKGSDKTHTCPPCPAPELLGGPSVFLFPPKPKDTLMISRTPEVTCVVVDVSHEDPEVKFNWYVDGVEVHNAKTKPREEQYNSTYRVVSVLTVLHQDWLNGKEYKCKVSNKALPAPIEKTISKAKGQPREPRVYTLPPCRDELTKNQVSLTCLVKGFYPSDIAVEWESNGQPENNYKTTPPVLVSDGSFTLYSKLTVDKSRWQQGNVFSCSVMHEALHNHYTQKSLSLSPG heavy: EVQLVESGGGLVKPGGSLRLSCAASGFTFSSYSMNWVRQAPGKGLEWVSSISSSSSYIYYADSVKGRFTISRDNAKNSLYLQMNSLRAEDTAVYYCARGAPIGAAAGWFDPWGQGTLVTVSSASTKGPSVFPLAPSSKSTSGGTAALGCLVKDYFPEPVTVSWNSGALTSGVHTFPAVLQSSGLYSLSSVVTVPSSSLGTQTYICNVNHKPSNTKVDKKVEPKSCDKTHTCPPCPAPELLGGPSVFLFPPKPKDTLMISRTPEVTCVVVDVSHEDPEVKFNWYVDGVEVHNAKTKPREEQYNSTYRVVSVLTVLHQDWLNGKEYKCKVSNKALPAPIEKTISKAKGQPREPQVCTLPPSRDELTENQVSLTCLVKGFYPSDIAVEWESNGQPENNYKTTPPVLDSDGSFFLYSWLTVDKSRWQQGNVFSCSVMHEALHNHYTQKSLSLSPG light: DIQMTQSPSSVSASVGDRVTITCRASQGISSWLAWYQQKPGKAPKLLIYAASSLQSGVPSRFSGSGSGTDFTLTISSLQPEDFATYYCQQGVSFPRTFGGGTKVEIKRTVAAPSVFIFPPSDEQLKSGTASVVCLLNNFYPREAKVQWKVDNALQSGNSQESVTEQDSKDSTYSLSSTLTLSKADYEKHKVYACEVTHQGLSSPVTKSFNRGEC
